How the values were obtained:
[1] = target: T1, human CTGF (antigen of the Biacore assays) (human, UniProt P29279 27-349); test: Biacore, CTGF immobilised, antibody 150 µg/ml then 50 nM TGF-β1 (competitor TGF-β1)
T1 construct: also called antigen human CTGF; human CTGF protein
T1 sequence (looked up): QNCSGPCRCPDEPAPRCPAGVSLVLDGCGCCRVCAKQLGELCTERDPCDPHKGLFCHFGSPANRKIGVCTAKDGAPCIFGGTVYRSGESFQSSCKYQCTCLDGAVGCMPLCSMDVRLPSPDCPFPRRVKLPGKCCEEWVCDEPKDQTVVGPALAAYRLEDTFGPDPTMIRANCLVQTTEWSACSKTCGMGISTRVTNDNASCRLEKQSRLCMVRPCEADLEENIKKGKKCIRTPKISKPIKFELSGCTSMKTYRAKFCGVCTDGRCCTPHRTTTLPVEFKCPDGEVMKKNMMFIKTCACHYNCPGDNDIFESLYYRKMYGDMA
Experimental: First, the antigen human CTGF was immobilized onto a CMS biosensor chip (Cat. # BR-1005-30, GE) by amino coupling, with an immobilization level of 1500 RU, and then a high concentration of CTGF antibody (150 μg/ml) was allowed to flow through the surface of the chip for 150 s; 50 nM TGF-β1 protein was injected for 120 s, and the reaction signals were detected in real time with the Biacore T200 instrument to generate a binding and dissociation curve. After the dissociation was completed in each of the experimental cycles, the biosensor chip was washed and regenerated with regeneration buffer.
The resulting experimental data were statistically analyzed with GE Biacore T200 Evaluation version 3.0 software.

[2] = target: T1, human CTGF (antigen of the Biacore …); test: Biacore, antibody captured on Protein A, CTGF in flow, 1:1 fit
From the text: (§1) A certain amount of each of the test antibodies was affinity-captured with Protein A biosensor chip (Cat. # 29127556, GE), and then a certain concentration of human or mouse CTGF was allowed to flow through the surface of the chip. The reaction signals were detected in real time with Biacore instrument to generate a binding and dissociation curve. After the dissociation was completed in each cycle, the biosensor chip was washed and regenerated with Glycine-HCl regeneration solution pH 1.5 (Cat. # BR-1003-54, GE). The running buffer for the assay was 1×HBS-EP buffer solution (Cat. # BR-1001-88, GE).

[3] = target: T2, mouse CTGF (antigen of the Biacore assay) (mouse, UniProt P29268 26-348); test: Biacore, antibody captured on Protein A, mouse CTGF in flow, 1:1 fit
T2 construct: also called mouse CTGF protein
T2 sequence (looked up): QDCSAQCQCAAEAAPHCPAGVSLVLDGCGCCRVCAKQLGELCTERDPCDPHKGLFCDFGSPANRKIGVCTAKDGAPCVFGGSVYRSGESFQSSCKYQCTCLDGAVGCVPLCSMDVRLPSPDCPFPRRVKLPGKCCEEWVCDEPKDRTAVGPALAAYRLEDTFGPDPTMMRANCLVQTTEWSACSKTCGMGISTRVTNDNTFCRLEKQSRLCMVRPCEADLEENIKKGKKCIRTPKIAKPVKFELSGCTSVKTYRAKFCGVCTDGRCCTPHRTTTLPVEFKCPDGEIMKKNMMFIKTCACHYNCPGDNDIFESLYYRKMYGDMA
From the text: as §1

[4] = target: T3, human CTGF protein (R&D, Cat No. 9190-CC) (human, UniProt P29279 27-349); test: ELISA, plate coated with CTGF (R&D 9190-CC)
T3 construct: Bought protein; also called CTGF recombinant protein; CTGF (R&D)
T3 sequence: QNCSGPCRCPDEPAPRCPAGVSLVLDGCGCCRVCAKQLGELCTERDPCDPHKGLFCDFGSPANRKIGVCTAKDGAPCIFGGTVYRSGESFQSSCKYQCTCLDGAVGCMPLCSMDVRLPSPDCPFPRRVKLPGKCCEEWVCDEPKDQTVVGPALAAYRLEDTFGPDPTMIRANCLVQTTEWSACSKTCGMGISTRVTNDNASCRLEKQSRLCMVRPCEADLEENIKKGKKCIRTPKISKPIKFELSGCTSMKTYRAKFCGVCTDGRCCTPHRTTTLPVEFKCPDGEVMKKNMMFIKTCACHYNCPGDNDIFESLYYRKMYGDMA
Experimental: The binding activity of anti-human CTGF antibody to human CTGF protein was tested by ELISA assay and Biacore. A 96-well microtiter plate was directly coated with the CTGF recombinant protein. The signal strength upon the addition of the antibody was used to determine the binding activity of the antibody to CTGF. The specific experimental procedures were as follows:
The CTGF protein (R&D, Cat No. 9190-CC) was diluted with PBS, pH 7.4 (Shanghai Yuanpei, Cat No. B320) buffer to a concentration of 0.2 μg/ml, 50 μl/well of which was added into the 96-well microtiter plate (Corning, Cat No. CLS3590-100EA), and incubated in an incubator at 37° C. for 2 hours or at 4° C. overnight (16-18 hours). The liquid was removed, 250 μl/ well blocking solution (5% skim milk (BD skim milk, Cat No.232100) diluted in PBS) was added, and incubated in an incubator at 37° C. for 3 hours or at 4° C. overnight (16-18 hours) for blocking. After the blocking was finished, the blocking solution was removed, the plate was washed for 5 times with PBST buffer (PBS containing 0.1% Tween-20, pH 7.4), 50 μl/well of various concentrations of each of the test antibodies (antibodies purified from hybridoma or humanized antibodies) diluted with sample dilution solution were added, and incubated in an incubator at 37° C. for 1 hours. After the incubation was finished, the plate was washed for 3 times with PBST, 50 μl/well of HRP-labeled goat anti-mouse secondary antibody (Jackson Immuno Research, Cat No. 115-035-003) or goat anti-human secondary antibody (Jackson Immuno Research, Cat No. 109-035-003) diluted with sample dilution solution was added, and incubated at 37° C. for 1 hour. The plate was washed for 3 times with PBST, 50 μl/well of TMB chromogenic substrate (KPL, Cat No. 52-00-03) was added, incubated at room temperature for 5-10min, and 50 μl/well of 1 M H₂SO₄ was added to stop the reaction. The absorbance value was read by a microplate reader (Molecular Devices, VERSA max) at a wavelength of 450 nm, and the data was analyzed with GraphPad Prism 5. The binding of CTGF antibody to human CTGF protein was calculated as EC50 value.

B1: Hu164-67yl (antibody, human IgG1, lambda)
heavy: EVTLKESGPVLVKPTETLTLTCTVSGFSLSTFGVHWIRQPPGKGLEWLGVIWRRGGTDYNAAFMSRLTISKDTSKSQVVFTMTNMDPVDTATYYCARDGGFDYWGQGTTVTVSSASTKGPSVFPLAPSSKSTSGGTAALGCLVKDYFPEPVTVSWNSGALTSGVHTFPAVLQSSGLYSLSSVVTVPSSSLGTQTYICNVNHKPSNTKVDKKVEPKSCDKTHTCPPCPAPELLGGPSVFLFPPKPKDTLYITREPEVTCVVVDVSHEDPEVKFNWYVDGVEVHNAKTKPREEQYNSTYRVVSVLTVLHQDWLNGKEYKCKVSNKALPAPIEKTISKAKGQPREPQVYTLPPSRDELTKNQVSLTCLVKGFYPSDIAVEWESNGQPENNYKTTPPVLDSDGSFFLYSKLTVDKSRWQQGNVFSCSVMHEALHNHYTQKSLSLSPGK
light: ETVVTQEPSLTVSPGGTVTLTCRSSIGAVTTSNYANWVQQKPGQAFRGLIGGTSNRAPWTPARFSGSLLGGKAALTLSGVQPEDEAEYYCALWYSTHYVFGGGTKLTVLGQPKANPTVTLFPPSSEELQANKATLVCLISDFYPGAVTVAWKADGSPVKAGVETTKPSKQSNNKYAASSYLSLTPEQWKSHRSYSCQVTHEGSTVEKTVAPTEC
B1 was tested, and the “Function-blocking percentage (%)” value [1] was 53.9%, the Kd [2] was 0.0662 nM and the koff [2] was 0.00227 s⁻¹. It also gave a kon [2] of 3.43e+07 M⁻¹ s⁻¹, a Kd [3] of 0.0363 nM and a koff [3] of 0.00194 s⁻¹. The kon [3] was 5.34e+07 M⁻¹ s⁻¹ and the EC50 [4] was 0.06 nM.

— US20220324953A1 (JIANGSU HENGRUI MEDICINE, published 2022)
